Patent US20240010748A1 (SHANGHAI QILU PHARMACEUTICAL RESEARCH AND DEVELOPMENT CENTRE, published 2024)

T1: human Claudin 18.2 (hCLDN18.2) on stably-transfected HEK293 cells (human, UniProt P56856-2 1-261)
T1 sequence (looked up): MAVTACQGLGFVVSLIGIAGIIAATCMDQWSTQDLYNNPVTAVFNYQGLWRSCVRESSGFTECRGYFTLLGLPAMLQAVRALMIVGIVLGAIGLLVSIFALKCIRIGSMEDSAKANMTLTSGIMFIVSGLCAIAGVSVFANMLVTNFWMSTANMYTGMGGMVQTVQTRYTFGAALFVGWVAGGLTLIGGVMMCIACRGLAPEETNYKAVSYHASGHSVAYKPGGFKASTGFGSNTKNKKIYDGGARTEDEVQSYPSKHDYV

T2: Cynomolgus macaques Claudin 18 (cynoCLDN18) on stably-transfected HEK293 cells (Cynomolgus macaques, UniProt A0A2K5VVB4 1-261)
T2 chain: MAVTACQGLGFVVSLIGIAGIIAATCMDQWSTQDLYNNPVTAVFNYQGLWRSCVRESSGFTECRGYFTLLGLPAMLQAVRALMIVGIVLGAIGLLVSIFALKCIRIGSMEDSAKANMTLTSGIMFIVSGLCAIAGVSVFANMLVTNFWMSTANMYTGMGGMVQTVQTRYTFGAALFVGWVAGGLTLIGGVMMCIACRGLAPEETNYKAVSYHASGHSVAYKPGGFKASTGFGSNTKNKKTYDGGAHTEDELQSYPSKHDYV

B1: 6#AA (antibody, human IgG1, kappa, L234A L235A, V domains shown)
VH: QVQLVQSGAEVKKPGASVKVSCKASGYIFTNYWIHWVRQAPGQGLEWMGRIYPGTGNTYYNEKFTGRVTMTRDTSTSTVYMELSSLRSEDTAVYYCAREGYGKGNSMDYWGQGTTVTVSS
VL: DIVMTQSPDSLAVSLGERVTMNCKSSQSLLNAGNQKNYLTWYQQKPGQPPKLLFYWASTRESGVPDRFSGSGSGTDFTLTISSVQAEDVAVYHCQNAYYYPYTFGGGTKLEIKR
notes: Anti-human CLDN18.2 full-length antibody, IgG1 Fc with L234A/L235A
B2: 31905-44AA (bispecific antibody, human IgG1, kappa, L234A L235A)
heavy 1: not shown
heavy 2: QVQLVQSGAEVKKPGASVKVSCKASGYIFTNYWIHWVRQAPGQGLEWMGRIYPGTGNTYYNEKFTGRVTMTRDTSTSTVYMELSSLRSEDTAVYYCAREGYGKGNSMDYWGQGTTVTVSSASTKGPSVFPLAPSSKSTSGGTAALGCLVKDYFPEPVTVSWNSGALTSGVHTFPAVLQSSGLYSLSSVVTVPSSSLGTQTYICNVNHKPSNTKVDKKVEPKSCDKTHTCPPCPAPEAAGGPSVFLFPPKPKDTLMISRTPEVTCVVVDVSHEDPEVKFNWYVDGVEVHNAKTKPREEQYNSTYRVVSVLTVLHQDWLNGKEYKCKVSNKALPAPIEKTISKAKGQPREPQVCTLPPSRDELTKNQVSLSCAVKGFYPSDIAVEWESNGQPENNYKTTPPVLDSDGSFFLVSKLTVDKSRWQQGNVFSCSVMHEALHNRYTQKSLSLSPGK
light: not shown
notes: Full-length 6#AA with one anti-CD3 scFv of h160C9AA on the C-terminus of one heavy chain; knob-into-hole; Fc with L234A/L235A; also called anti-CD3-CLDN18.2 bispecific antibody; CD3 monovalent antibody
B3: h160C9AA (antibody, human IgG1, lambda, L234A L235A, V domains shown)
VH: EVKLVESGGGLVQPGGSLKLSCAASGFTFNTYAMNWVRQAPGKGLEWVARIRSKYNNYATYYADSVKDRFTISRDDAKNTLYLQMNNLRTEDTAVYYCVRHGNFGNSYVSWFAYWGQGTLVTVSS
VL: QAVVTQEPSLTVSPGGTVTLTCRSSTGAVTTSNYANWVQQKPGQAPRGLIGGTNKRAPGTPARFSGSLLGGKAALTLSGAQPEDEAEYYCALWYSNLWVFGGGTKLTVLG
notes: Anti-CD3 full-length antibody, Fc with L234A/L235A

What was measured:
[1] = molecular target: T1, human Claudin 18.2 (hCLDN18.2) on …; experiment: cell-based or functional assay
[2] = molecular target: T2, Cynomolgus macaques Claudin 18 …; experiment: FACS on HEK293-cynoCLDN18 cells
[3] = molecular target: T1, human Claudin 18.2 (hCLDN18.2) on …; experiment: FACS on HEK293-hCLDN18.2 cells
Experimental: (§1) The binding situation of the anti-CD3-CLDN18.2 bispecific antibodies to stably-transfected HEK293 cells expressing hCLDN18.2 (HEK293-hCLDN18.2) and T lymphocytes naturally expressing hCD3 (Jurkat) were detected by using FACS.
(§2) HEK293-hCLDN18.2 or Jurkat cells were collected and re-suspended with FACS buffer (PBS+1% BSA+0.5 mM EDTA), after adjusting the cell concentration, 1E5 cells per well were added into a 96-well plate, and then the antibody after gradient dilution was added according to the preset concentration, wherein the negative control was human IgG1AA (Negative-IgG1AA), the positive control of CLDN18.2 was antibody 6#AA, and the positive control of CD3 was antibody h160C9AA. Following incubation in a 4° C. shaking table for 2 h, the mixture was centrifugally washed twice with FACS buffer, added with fluorescently labeled anti-human IgG secondary antibody, 100 μL per well; after incubation in a 4° C. shaking table for 1 h, the mixture was centrifugally washed twice with FACS buffer, the cells were filtered to a 96-well plate, and then the prepared sample was detected on a flow cytometer; the mean fluorescence intensity (hereinafter referred to as MFI) for each concentration was calculated by software, and then the median effective concentration (hereinafter referred to as EC₅₀) and the top mean fluorescence intensity (Top MFI) were calculated by GraphPad software, and the results were shown in Table 3.

[4] = molecular target: T3, human CD3 (hCD3) naturally expressed on Jurkat cells (human, UniProt P07766 23-207); experiment: FACS on Jurkat cells (natural hCD3), fluorescent anti-human IgG secondary antibody
T3 construct: whole, on cells; CD3 on cells is a complex of several chains; also called CD3 receptors on Jurkat-NFAT cells
Experimental: as §1
HEK293-hCLDN18.2 or Jurkat cells were collected and re-suspended with FACS buffer (PBS+1% BSA+0.5 mM EDTA), after adjusting the cell concentration, 1E5 cells per well were added into a 96-well plate, and then the antibody after gradient dilution was added according to the preset concentration, wherein the negative control was human IgG1AA (Negative-IgG1AA), the positive control of CLDN18.2 was antibody 6#AA, and the positive control of CD3 was antibody h160C9AA. […]

[5] = molecular target: T3, human CD3 (hCD3) naturally expressed on …; experiment: cell-based or functional assay
[6] = molecular target: T3, human CD3 (hCD3) naturally expressed on …; experiment: FACS on Jurkat cells
Experimental: as §1, §2

[7] = molecular target: T1, human Claudin 18.2 (hCLDN18.2) on …; experiment: cell-based or functional assay; remark: listed apart in the source
[8] = molecular target: T4, human CD3 E&D protein (human, UniProt P07766 23-126; P04234 22-105); experiment: SPR (Biacore 8K), CD3 E&D immobilised by amino coupling, antibody as analyte, 1:1 fit
T4 construct: Soluble CD3 epsilon and delta protein immobilised on the chip; also called Humanized CD3 E&D; humanized CD3 E&D protein
Experimental: The affinity and kinetic properties of the bispecific antibodies to human CD3 E&D proteins were determined by surface plasmon resonance (SPR) using a Biacore 8K instrument. The human CD3 E&D protein was immobilized on the experimental channel of CMS chip by amino coupling, then the antibody to be tested was subjected to doubling dilution to serial concentrations, flowed through the surfaces of an experimental channel and a reference channel successively for binding, followed by dissociation, the binding and dissociation curve of each sample was obtained, and the results were analyzed and evaluated by Biacore Insight Evaluation software.
The bispecific antibodies of the present disclosure were diluted to 400 nM with 1×HBS-EP+ (10 mM HEPES, pH 7.4, 150 mM NaCl, 3 mM EDTA, 0.05% P20) running buffer, then subjected to doubling dilution to 1.56 nM with this buffer, thus obtaining antibody solutions in a range of concentrations from 400 nM to 1.56 nM. At the end of each experiment, the chip was regenerated by washing with 3M MgCl₂ solution at a flow rate of 30 μL/min for 30 s to remove captured antibody together with antigen. The raw data were analyzed using Biacore Insight Evaluation Software (version 2.0.15.12933) with a 1:1 fit model and affinity and kinetic experimental data of the resulting bispecific antibodies were shown in Table 4.

T4 sequence (P07766 23-126, chain 1 of 2): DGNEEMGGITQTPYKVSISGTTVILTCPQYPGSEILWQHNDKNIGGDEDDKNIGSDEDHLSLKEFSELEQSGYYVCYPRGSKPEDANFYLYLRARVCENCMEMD
T4 sequence (P04234 22-105, chain 2 of 2): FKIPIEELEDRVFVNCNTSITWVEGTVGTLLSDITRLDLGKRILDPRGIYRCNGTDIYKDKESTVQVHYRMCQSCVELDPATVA
T3 sequence (P07766 23-207): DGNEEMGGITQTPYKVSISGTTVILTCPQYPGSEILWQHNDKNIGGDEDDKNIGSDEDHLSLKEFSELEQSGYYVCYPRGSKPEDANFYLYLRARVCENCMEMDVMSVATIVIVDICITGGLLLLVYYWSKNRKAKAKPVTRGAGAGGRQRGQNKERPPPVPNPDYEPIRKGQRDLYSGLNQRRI

| Binder | T cell activation, CD25+CD69+ % [1] | TDCC activity, EC50 [1] | TDCC activity, Maximum lysis (%) [1] | EC50 [2] | MFI (Max) [2] | EC50 [3] | Top mean fluorescence intensity (Top MFI) [3] | binding result [4] | Jurkat-NFAT luciferase reporter, Fluorescence value (Max) [5] | Top mean fluorescence intensity (Top MFI) [6] | ADCC activity, EC50 [7] | ADCC activity, Maximum lysis (%) [7] | T cell activation, EC50 [1] | Jurkat-NFAT luciferase reporter, EC50 [5] | Kd [8] | koff [8] | kon [8] | EC50 [6] |
| --- | --- | --- | --- | --- | --- | --- | --- | --- | --- | --- | --- | --- | --- | --- | --- | --- | --- | --- |
| B1 | 3.18% | 1.45 nM | 16.3% | 0.62 nM | 39500 MFI | 0.95 nM | 18600 MFI | no binding (tested: about 2e-7 M (log M about -6.7)) | 0 | 26 MFI | 0.771 nM | 6.92% |  |  |  |  |  |  |
| B2 | 33.4% | 0.54 nM | 30% | 0.84 nM | 41800 MFI | 1.18 nM | 31000 MFI |  | 114000 | 1700 MFI | 0.532 nM | 7.03% | 0.049 nM | 124 nM | 17.9 nM | 0.00365 s⁻¹ | 204000 M⁻¹ s⁻¹ | 9.3 nM |
| B3 |  |  |  |  | 1040 MFI |  | 897 MFI |  | 220000 | 2020 MFI |  |  |  | 0.32 nM |  |  |  | 0.13 nM |
